This assay deals with recombinant purified fragment of TLR5 ectodomain of fish origin (fish). Briefly: competition fluorescence polarization, cell-free. On the technique in general: Polarisation of emitted light reports the rotation of a fluorescent probe.

Regarding CBLB502 (ligand), the Relative EC50 vs 502, Binding (FP) was determined as 1 fold vs 502.

The values above are taken from patent publication US20200277339A1.
